# Reference: patent publication US20260327578A1, “TRANSGLUTAMINASES AND USES THEREOF” (CURIE CO. INC., priority 2023, published 2026)
# Substitutions are numbered along the chain they refer to. In names and notes the source's numbering stands.
# B1: S10: Tgase variant S2P Q124E K151R K152R relative to SEQ ID NO: 2 (protein, UniProt P81453 77-407, looked up, variant S2P Q124E K151R K152R)
# Protein-glutamine …: DPDDRVTPPAEPLDRMPDPYRPSYGRAETVVNNYIRKWQQVYSHRDGRKQQMTEEQREWLSYGCVGVTWVNSGQYPTNRLAFASFDEDRFKNELKNGRPRSGETRAEFEGRVAKESFDEEKGFERAREVASVMNRALENAHDESAYLDNLRRELANGNDALRNEDARSPFYSALRNTPSFKERNGGNHDPSRMKAVIYSKHFWSGQDRSSSADKRKYGDPDAFRPAPGTGLVDMSRDRNIPRSPTSPGEGFVNFDYGWFGAQTEADADKTVWTHGNHYHAPNGSLGAMHVYESKFRNWSEGYSDFDRGAYVITFIPKSWNTAPDKVKQGWP
# B2: S11: Tgase variant S2P Q124I K151R K152R relative to SEQ ID NO: 2 (protein, UniProt P81453 77-407, looked up, variant S2P Q124I K151R K152R)
# Protein-glutamine …: B1 Protein-glutamine … with E124I
# B3: S12: Tgase variant S2P Q124L K151R K152R relative to SEQ ID NO: 2 (protein, UniProt P81453 77-407, looked up, variant S2P Q124L K151R K152R)
# Protein-glutamine …: B1 Protein-glutamine … with E124L
# B4: S13: Tgase variant S2P Q124N K151R K152R relative to SEQ ID NO: 2 (protein, UniProt P81453 77-407, looked up, variant S2P Q124N K151R K152R)
# Protein-glutamine …: B1 Protein-glutamine … with E124N
# B5: S14: Tgase variant S2P Q50S Q51E Q56E relative to SEQ ID NO: 2 (protein, UniProt P81453 77-407, looked up, variant S2P Q50S Q51E Q56E)
# Protein-glutamine …: B1 Protein-glutamine … with Q50S, Q51E, Q56E, E124Q, R151K, R152K
# B6: S15: Tgase variant S2P Q51P Q56M Q74A K91E relative to SEQ ID NO: 2 (protein, UniProt P81453 77-407, looked up, variant S2P Q51P Q56M Q74A K91E)
# Protein-glutamine …: B1 Protein-glutamine … with Q51P, Q56M, Q74A, K91E, E124Q, R151K, R152K
# B7: S16: Tgase variant S2P Q50S Q74A K91H Q124L K151R K152R relative to SEQ ID NO: 2 (protein, UniProt P81453 77-407, looked up, variant S2P Q50S Q74A K91H Q124L K151R K152R)
# Protein-glutamine …: B1 Protein-glutamine … with Q50S, Q74A, K91H, E124L
# B8: S17: Tgase variant S2P Q50S Q74A K91H Q124N K151R K152R relative to SEQ ID NO: 2 (protein, UniProt P81453 77-407, looked up, variant S2P Q50S Q74A K91H Q124N K151R K152R)
# Protein-glutamine …: B1 Protein-glutamine … with Q50S, Q74A, K91H, E124N
# B9: S18: Tgase variant S2P K49H Q50A Q74C Q124L K151R K152R relative to SEQ ID NO: 2 (protein, UniProt P81453 77-407, looked up, variant S2P K49H Q50A Q74C Q124L K151R K152R)
# Protein-glutamine …: B1 Protein-glutamine … with K49H, Q50A, Q74C, E124L
# B10: S19: Tgase variant S2P K49H Q50A Q74C Q124N K151R K152R relative to SEQ ID NO: 2 (protein, UniProt P81453 77-407, looked up, variant S2P K49H Q50A Q74C Q124N K151R K152R)
# Protein-glutamine …: B1 Protein-glutamine … with K49H, Q50A, Q74C, E124N
# B11: S20: Tgase variant S2P Q51A Q74T K95I Q124L K151R K152R relative to SEQ ID NO: 2 (protein, UniProt P81453 77-407, looked up, variant S2P Q51A Q74T K95I Q124L K151R K152R)
# Protein-glutamine …: B1 Protein-glutamine … with Q51A, Q74T, K95I, E124L
# B12: S21: Tgase variant S2P Q50T Q51A Q74M K95E Q124L K151R K152R relative to SEQ ID NO: 2 (protein, UniProt P81453 77-407, looked up, variant S2P Q50T Q51A Q74M K95E Q124L K151R K152R)
# Protein-glutamine …: B1 Protein-glutamine … with Q50T, Q51A, Q74M, K95E, E124L
# B13: S1: Tgase variant S2P Q50H relative to SEQ ID NO: 2 (protein, UniProt P81453 77-407, looked up, variant S2P Q50H)
# Protein-glutamine …: B1 Protein-glutamine … with Q50H, E124Q, R151K, R152K
# B14: S2: Tgase variant S2P Q74V relative to SEQ ID NO: 2 (protein, UniProt P81453 77-407, looked up, variant S2P Q74V)
# Protein-glutamine …: B1 Protein-glutamine … with Q74V, E124Q, R151K, R152K
# B15: S3: Tgase variant S2P Q50A relative to SEQ ID NO: 2 (protein, UniProt P81453 77-407, looked up, variant S2P Q50A)
# Protein-glutamine …: B1 Protein-glutamine … with Q50A, E124Q, R151K, R152K
# B16: S4: Tgase variant S2P Q51P relative to SEQ ID NO: 2 (protein, UniProt P81453 77-407, looked up, variant S2P Q51P)
# Protein-glutamine …: B1 Protein-glutamine … with Q51P, E124Q, R151K, R152K
# B17: A4: Tgase variant S2P Q50S Q74A K91H Q124L K151R K152R N282Q S284A H289I relative to SEQ ID NO: 2 (protein, UniProt P81453 77-407, looked up, variant S2P Q50S Q74A K91H Q124L K151R K152R N282Q S284A H289I)
# Protein-glutamine …: B1 Protein-glutamine … with Q50S, Q74A, K91H, E124L, N282Q, S284A, H289I
# B18: A5: Tgase variant S2P Q50S Q74A K91H Q124L K151R K152R N282D S284A H289I S299E relative to SEQ ID NO: 2 (protein, UniProt P81453 77-407, looked up, variant S2P Q50S Q74A K91H Q124L K151R K152R N282D S284A H289I S299E)
# Protein-glutamine …: B1 Protein-glutamine … with Q50S, Q74A, K91H, E124L, N282D, S284A, H289I, S299E
# B19: A6: Tgase variant S2P D14W Q50S Q74A K91H Q124L K151R K152R A166W N282M G283A S299V relative to SEQ ID NO: 2 (protein, UniProt P81453 77-407, looked up, variant S2P D14W Q50S Q74A K91H Q124L K151R K152R A166W N282M G283A S299V)
# Protein-glutamine …: B1 Protein-glutamine … with D14W, Q50S, Q74A, K91H, E124L, A166W, N282M, G283A, S299V
# B20: A7: Tgase variant S2P Q50S Q74A K91H Q124L K151R K152R N282M G283A S299V relative to SEQ ID NO: 2 (protein, UniProt P81453 77-407, looked up, variant S2P Q50S Q74A K91H Q124L K151R K152R N282M G283A S299V)
# Protein-glutamine …: B1 Protein-glutamine … with Q50S, Q74A, K91H, E124L, N282M, G283A, S299V
# Test system: N,N-dimethylcasein
# Assay: Chemostability: residual Tgase activity after 24 hour incubation at 20-30 °C, normalized to wild-type
# Format: biochemical
# Settings: improvement relative to wild-type mature Tgase (SEQ ID NO: 2); residual activity after 24 h at 20-30 °C in cell-free extract
# Description: Table 5 depicts variants of Streptomyces mobaraensis Tgase and improvement to stability relative to wild-type mature Tgase (SEQ ID NO. 2) as determined in Example 3. Numbering of amino acid positions is in reference to the mature S. mobaraensis Tgase sequence depicted in SEQ ID NO. 2. A “+” indicates an improvement between 1.2 and 2-fold. A “++” indicates an improvement greater than 2-fold.
# To evaluate chemostability, Tgase samples in cell-free extract were assayed for activity, using the assay described in Example 4B, immediately after expression and again following a 24 hour incubation at 20-30° C. Mature Tgase variant residual activity was normalized to the residual activity of the wild-type and results are depicted in Table 5.
# (§1) Protein functionalization by Tgase variants was determined by the fluorogenic labeling of casein using monodansylcadaverine (e.g., a commercially available kit such as the Transglutaminase Fluorogenic Activity Assay Kit, T036, Zedira, Germany). Tgase activity was monitored by measuring fluorescence (excitation wavelength 332 nm; emission wavelength 500 nm) using a BioTek Synergy H1 microplate reader. Transglutaminase-catalyzed covalent coupling (crosslinking) of monodansylcadaverine with N,N-dimethylcasein produces a product that causes a shift in intensity and wavelength of fluorescence of the dansyl group now linked to the casein. The relative transglutaminase activity is shown by increase of fluorescence intensity over time. Enzyme variant loading was optimized based on expression levels, ensuring enzyme was the rate limiting factor. Briefly, cell-free reactions (set up as described in Example 2A) were first diluted 10-fold using phosphate buffer, pH 7.4, and a 5 microliter aliquot was analyzed.
row,Molecule,Stability
1,B1,++ (an improvement greater than 2-fold)
2,B2,++ (an improvement greater than 2-fold)
3,B3,++ (an improvement greater than 2-fold)
4,B4,+ (an improvement between 1.2 and 2-fold)
5,B5,++ (an improvement greater than 2-fold)
6,B6,++ (an improvement greater than 2-fold)
7,B7,++ (an improvement greater than 2-fold)
8,B8,+ (an improvement between 1.2 and 2-fold)
9,B9,+ (an improvement between 1.2 and 2-fold)
10,B10,+ (an improvement between 1.2 and 2-fold)
11,B11,+ (an improvement between 1.2 and 2-fold)
12,B12,+ (an improvement between 1.2 and 2-fold)
13,B13,++ (an improvement greater than 2-fold)
14,B14,++ (an improvement greater than 2-fold)
15,B15,++ (an improvement greater than 2-fold)
16,B16,+ (an improvement between 1.2 and 2-fold)

# Test system: N,N-dimethylcasein
# Assay: Productivity: total product formed after 24 hours (protein functionalization assay)
# Format: biochemical
# Settings: improvement relative to wild-type Tgase (SEQ ID NO: 2); total product after 24 h
# Description: (§2) Enzymatic “productivity” is a measure of product formation or substrate disappearance over time, at a prescribed temperature under specified reaction conditions. It is the measure both the durability and reaction yield of the enzyme variant. In this instance, productivity is defined as total product formed over 24-hours at a constant substrate concentration when the enzyme is the rate limiting factor. The time is defined as 24 hours, which represents approaching or surpassing burnout, denaturation, or self-reaction of the enzyme variant. In other words, variants with higher productivity deliver a higher product yield in 24-hours than variants with lower productivity produce in the same period of time. “Rate” refers to the initial rate for an enzymatic reaction, at a prescribed temperature under specified reaction conditions. The enzyme produces product at an initial rate that is approximately linear for a short period after the start of the reaction. When concentrations of enzyme and substrate are the same across the sample set, initial rates between enzyme variants can be compared. In this instance, the linear range for production of product occurs in one hour. Enzyme variants with faster initial rates deliver a higher product yield in one hour than variants with slower initial rates produce at the same time-period. In some cases, improvements to initial rates also deliver a more productive variant. In some cases, improvements to initial rates result in faster decay of the enzyme variant reducing overall enzymatic productivity. Productivity and rate may be assessed as described in Example 2.
# (§3) Table 6 depicts variants of Streptomyces mobaraensis Tgase and improvement to productivity and/or rate relative to wild-type Tgase (SEQ ID NO. 2) as determined in Example 3. Numbering of amino acid positions is in reference to the mature S. mobaraensis Tgase sequence depicted in SEQ ID NO. 2. A “−” indicates a reduction in activity. A “+” indicates an improvement between 1.2 and 2-fold. A “++” indicates an improvement between 2 and 5-fold. A “+++” indicates an improvement greater than 5-fold.
# To evaluate productivity, total product formed was measured after 24-hours of incubation, using the assay described in Example 4B. The time is defined as 24 hours which represents approaching or surpassing burnout, denaturation, or self-reaction of the enzyme variant.
# as §1
row,Molecule,Productivity
1,B17,+ (an improvement between 1.2 and 2-fold)
2,B18,+ (an improvement between 1.2 and 2-fold)
3,B19,++ (an improvement between 2 and 5-fold)
4,B20,+ (an improvement between 1.2 and 2-fold)

# Test system: N,N-dimethylcasein
# Assay: Rate of product formation over 60 minutes (protein functionalization assay)
# Format: biochemical
# Parameters: key: −: a reduction in activity; +: an improvement between 1.2 and 2-fold; ++: an improvement between 2 and 5-fold; +++: an improvement greater than 5-fold
# Settings: improvement relative to wild-type Tgase (SEQ ID NO: 2); initial rate over 60 min
# Description: as §2, §3
# Rate was assessed by measuring the rate of product formation over 60 minutes of incubation using a kinetic method to take scans every 60 seconds to determine product formation, using reaction conditions as described in Example 4B. The enzyme produces product at an initial rate that is approximately linear for the first one hour of the reaction. The concentrations of enzyme and substrate are the same across the sample set for each enzyme variant. Enzyme variants with faster initial rates deliver a higher product yield in one hour than variants with slower initial rates produce at the same time-period.
# as §1
row,Molecule,Rate
1,B17,−
2,B18,−
3,B19,+++ (an improvement greater than 5-fold)
4,B20,+ (an improvement between 1.2 and 2-fold)
